Results taken from publication PMC4829898.

Molecular target: recombinant soluble trimeric hemagglutinin (triHA) (influenza A virus A/Belgium/2009 (H1N1, 2009 pandemic) | Saccharomyces cerevisiae)
Assay: SEC

recombinant soluble trimeric hemagglutinin (triHA)
stoichiometry N: 3
